What was measured:
[1] = molecular target: α-synuclein (αS) monomers, full-length 1-140 (UniProt P37840); assay: co-sedimentation
[2] = molecular target: TDP-43 PrLD sonicated fibrils (UniProt Q13148 267-414); assay: ThT fluorescence seeding kinetics

stoichiometry N (TDP-43 PrLD per αS) [1]	binding result [2]	Molecule
1.2		TDP-43 PrLD (residues 267-414) monomers, hexahistidine-TEV fusion construct (from UniProt Q13148 267-414) (domain or fragment)
	binds	TDP-43 PrLD (residues 267-414) monomers, hexahistidine-TEV fusion construct (domain or fragment, UniProt Q13148 267-414, looked up) NRQLERSGRFGGNPGGFGNQGGFGNSRGGGAGLGNNQGSNMGGGMNFGAFSINPAMMAAAQAALQSSWGMMGMLASQQNQSGPSGNNQNQGNMQREPNQAFGSGNNSYSGSNSGAAIGWGSASNAGSGSGFNGGFGSSMDSKSSGWGM
